Source: the DeepSol protein solubility set

Experiment: soluble on expression in E. coli; label from the status in PepcDB or PDB records

Sequence | soluble on expression in E. coli
MAHHHHHHMERSLYYTPQLLWLQVMDRMPYEFTHYFVSSPPPHHEAMLSGIREQYGRPYSAAKPFDVELLGRLWNGHSRVMFATDNLVFSAVDHSVSDRWKEMGFQGTDPSTDFRGAGIFGLAQLVYLVEHHPEEWSAILTPDFMAAAAGLNVTMRLATMLGINSSLNQLSSSVLSKYSAREARLQLCRFIFDPSVDVATQRLSEVYCFAMRLLHYRWMRSTRNIMEFNQQLSSMYTELDRLLFLCNTLEELCSLL | not soluble
MGSDKIHHHHHHMYVTSQIHAKGSDLAKLMQIAALKGNEEVLDVATGGGHVANAFAPFVKKVVAFDLTEDILKVARAFIEGNGHQQVEYVQGDAEQMPFTDERFHIVTCRIAAHHFPNPASFVSEAYRVLKKGGQLLLVDNSAPENDAFDVFYNYVEKERDYSHHRAWKKSDWLKMLEEAGFELEELHCFHKTFIFEDWCDRMNVTTEKKQELSDFIKSKPTEYYQKFKIVVEDGRVYSFRGESILMKARKPTVKNKGSS | soluble
MANRIQEIALSDKNLGSKIKAVYKTERDIYVNGAPVRGRVFTASSEKQRDFEIFVPHLRNSQMLNGREEVKLIDPVARINVKRNNIGNSRSIDMVVYAKRLEVVGGNK | not soluble
MSLLKISGKFFDEDNVDNLIVLRQSIKELADNGFRVGIVTGGGSTARRYIKLAREIGIGEAYLDLLGIWASRLNAYLVMFSLQDLAYMHVPQSLEEFIQDWSHGKVVVTGGFQPGQSTAAVAALVAEASSSKTLVVATNVDGVYEKDPRIYADVKLIPHLTTQDLRKILEGSQSVQAGTYELLDPLAIKIVERSKIRVIVMNYRKLNRIIDILKGEEVSSIIEPVEGHHHHHH | not soluble
MNYVERYIEQFLRATVRNNIKHYLLMLDEKMKNLDDYMRYLITKKEQLSKLIDSLMLTLENKYIDIAEAFQIQCAREINNQEIENIKSELNKVEAYYAQIETQIQQTSTEKIATEKTSYLINYMNAVALEHHHHHH | soluble
MGSDKIHHHHHHMNTIHSCVLQIHLTIETKMADTKAIQQLDLNLLKIFEALYSEQNMTLASKSLFITPSAVSHAIKRLRLVLNDPLFVRQGLQMQPTAACQRMAPQLISALNRIRQVLQQCGEFDPLTTEQTFKIAIHEALESQIMPTLIKQVVKLIPHAKIASMSLSRENIARQLANGEVDLAIDVARAVNAPLAHKTLLSDPFCVLIDRRQHAMHLEPSTKLTPTDYANAEHVAVSSRPIGRVMEDILLQQQGVNRHIKYRCQSYQTAAKIVIGSPLMLTLPRSIAEQFIHPDLHVCTMPFELPDIDTHLYWHMNTETDPAFVWLRAQIEMAIIAE | not soluble
MGSDKIHHHHHHMVMIQLCEWQQQGQFLSINDQQIFTRQAGDRKAPALLLIHGYPSASWDWEGMWHELTQHYFVVTLDMLGFGFSDKPKNVDYLISQQADIYEAVLQQFGVSHYHILAHDYGDTVAQELLARQLDGNSTLSINSVCFLNGGLFPETHKPLLIQTLLLSPLGPLVSKLINKQKFAVNLQRIFGPSTPPTPQVIDALWQLLNHNNGLAVMHKLINYITQRKQHRERWVGAIINSTIPIKLIAGVKDPISGQHMIDHYRKLIPHADVTELPTLGHYPQVEDANAIIAAYLQFRLNRT | not soluble
GPGSMRGKRFATPTGQPGMRQGGYTQLHAVSASTSPGRRPTAKHCAPSASQKELFTSQALSRPRPTEAHALSSSTPERRFQAVQRSSTQSSMPSTSVHHMLNELVDLSHSIAALLEQGQVLSLTAAPSAADRQQEASLKTQEIERIVRRVEAHFVDRIQSLETLNASLSEEVRQLRGALATQRTNGAEGRANVVQDIRGGDLQEDSKTLDACERASWDEPGNGAASSEVEHLRRVLMAEKRQRLRVEEQTQSLTEQHAKVVGTLERRLKKQEEQLYDLIAAIDRGYGGGSVTTSASPTRCTERGSSHRLPTPRHLLRQQLAQHQQTQRALQQYKENLRLEPPSPAGSDEVSATMKELGLDDVRRTLELIRSSKPLTVQEHHHDQEETHTAPAVCSPPHTARDGPAVVHSPRVCSQVPPPAADRAACTSGTEVDEITAFLENITKELESLDSQ | soluble
MSLNRYSVHPEQVKRFTTEELRSHFLMDSLFTENKLTMYYSHEDRVVIGGAAPGQSELKLDAGDFLKTDFFLERREIGIINVGQPGAVRVGDDEYVLQTKDFLYIGMGNQDVSFSSLNGEKAKFYFVSACAHKSYPTQKAALSELTPDRLGDDAASNVRSLYKVIHQDGIKSCQLMMGITMLDQNNNWNTMPAHVHDRRMEAYLYLDLEKDSKVFHFMGQPDETRHLVVGNEQAVLSPAWSIHSGAGTSNYSFVWAMAGENYTFTDMDLIPMDGLKEGHHHHHH | soluble
MKTFIKGLVLSAVVASSQVYAEQTLNVYAWGGYLPEKSLKAFEQQEGVTINYSTFENNESMYTKLKLLKGTGYDVVFASAYFIEKMGREGLLAEIDHNQIPNMKDAMPTVLGLAHDPQNKFSLPYIWGITGLYYNSSTLPNGITKWADLWDKQYEQQVMLIDDIRDVFGMALKLNGFSINTKNEEEIKKAYESLVALKKNVLLYNSDAPHVPYVSGEATLGMQWNGNAYQGQVEMPELKFVMPEEGAVLWMDNFTIPSGSKNIPLAHKFINFMYQPENQAEIVQSLGYASATKGGRALLPAELRDNPTIFPSDEDMKKGEFINDVGPETLAIYEKYWQRLRNQ | not soluble
MGSDKIHHHHHHMGYAMRLALIDGEHYPDVNRWALEKLKVDCAVFVGGMEKIGSIRDVERTLSIKLYYDEDIFKALERAIEENEIREVIDLSDEPVLTPEIRFRIASFLLKRGITYIGADFEFKPKEWIKIDVPSINIIGTGKRIGKTAIGGFVGRTLKEEYKVVIVTMGRGGPESPEVIRGDLMEITPEFLVEVSEKGRHAASDHFEDALTAGVATVGCRRCGGGLAGFTFLDVLQKGIEVAKSLNPEIIVFEGSGASFANVLSEGFITVVSALQGKEIKMYLYPLRISLGDLIVVTMADEVKDPGKISSLIKEINPDADIHLTRFSPRLIGNVEGKAVVVTTSTNSAKRVTKELEDRGIDVVGFSGNLANRVKLREELKKVSYDTLIVELKAGAVDVAIKSALRSGKRIVFLDYEPKNIDDKDLRESVKELARRIVNDKGHRKGR | not soluble
MHHHHHHSSGLVPRGSGMKETAAAKFERQHMDSPDLGTDDDDKAMADIGSEFMSTYHERPLGPASAAEWFRQRSYDYGQFPPEDLARRKRELGLTVSAVLPSRNVADTVGGIIDEIHALNERAPLIDQILVVDADSEDGTAGVAASHGAEVYSENELMSGYGDAHGKGDAMWRALSVTRGDLVLYIDADTRDFRPQLAYGVLGPVLEVPGVRFVKAAYRRPFRKGESIEEDGGGRVTELTAKPLFNLFYPELAGFVQPLAGEFVADRELFCSIPFLTGYAVETGIMIDVLKKVGLGAMAQVDLGERQNRHQHLRDLSRMSYAVVRAVARRLRQEGRLQQLREPGLPESFFQLSDYLHAVATPEGLKLQEYVEELVERPPINEVLRVR | soluble
GAASEAEYGKVSKAWTLHADGSQEYRSSMELTLFTHTAMNSTYGESFIVYNPDFQTLKIHSSYTRQKDGTIVKTPDNAFVEVLPRFAADAPAYNQLKEMVVVHTGLELGATIYLDYSIITKPGYYPALDINERLQETSPVKECKVSISVPEGTPLACGLYGSPVKAVEESHDGIKEVHWTLRNIPASSREAFQPKNREASPHLVASTYPSGKAALATLDKRLKESQGYESKTFAQFLTDKSGNEQEKVNIIRDHILNNLSTCPIPMAMTGYTVRDIDTVLRSAYGTPLEIAQLLNVMLNAAGIPSEVLAVYPGHLDTDACGLAAIQTLAVKATVDGKDQYLSASPLTNRGGLDKVVSLSGTSIEIETTPIQIKESRSVAISADQAKDGFAICVLPAISAGIDSWGMSALNSKRSNLFELPSLIREEVTYTVTPAEGMKLQTSTQEQVISKPFGKVTRTITPRGNTIEVVRTIELNKQQFTPAEYSDVRSLIHEWTNPDNRVLLFSL | soluble
GPGSMSAETLACTYAALMLSDAGLPTSAENIAAAVKAAGVEMRPTLPIIFARFLEKKSVETLMAAAAAQAPTAASAPSPAAGAASAAAAGGKVEDKKKDEPEEEGDDDMGFGLFD | soluble
MGSDKIHHHHHHMKLRYIFYGLTSGLLFGLSSCSLNYDPIDTYSDVTEGVTDTGTKVVFKDKAAVESHLTTIYNQMRDRQEHWYVDLLLISDSHADNAYAGTTGAEVLPFENNSIEGSNSVLERDWNRYLEDVARANKLICNIDLVTDNSLTTAERAQYKAEAMIFRAMVMFDMVRLWGDFPVITTVADDITSENIEDVYEQYFPAQNTELEAYQQIEKDLLAAIQHAPDNTAGNKTLFTKSVARTLLAKIYAEKPLRDYSKVIRYCDEVKADGFELVKDFSDLFGMNAAGTDAKARNTKESILEAQFTPGSGNWCTWMFGRDLVNWNNNFTWAKWVTPSRDLINAFKKEGDQIRFQESVVYYDCNWSNYYPSDNYPFMYKCRSANSSIIKYRYADVLLLKAEALIMQDTPDLEAAAKIIDEVRERAGLGELSSSVRKDRDAMITALLNERRLELAFEGQRWFDLVRLDKVEEVMNAVYAKDSGRKSQVYAFDKNSYRLPIPQSVIDANDKIEQNPGY | not soluble
MTDSPSPIDSSFDASDVATPCTVIAAKISLRNRNGLEEDQENLDSFDAFTETHETQESKNIAHGEHEEDVSNIYVDDFSKEFGDTVSSVMEPLPKPLTFARTITKVYCHLDDQEHPYMVEVHVPPDCITLRDVKRKLMRTNFKYYCIALDPDTGLEVKAEVRDDSRRLYPLKNGRFELYLLTVEGSVHSDTSSGRHRRKQDGSSKGSSGSREYLRAAHHYDNPTPFSDDESQASSLPTYVKKAHAYNRKHAPQAYERHLPHMKHNNRHNHHRQNHYEESTFDVTTESDDHYRDGVTYYDEDEDDSRSINTDLTSVSQVHLKQKWRQQQKEMRNKWKRMPSISTASSSFSSITESSMGLEVITVRLNLETIPLGMTPSGHTNARGDAGLYVGDIQDRGAVALDGRIDIGDMIVGINEISLGNYSNKEAVQLLREAVQRQYLTLTIAKTGDPKQNAFPRNPRAEPIRPIDPNEWVKHATNAMKAMPSISEGSGLDIKDRYWFKIPIPMSFLGTDLVEWLVKHVQGLETKKKAREFAEEMLKLGYIRPGVGKQSFTKECYYVMGDECADYTQLRGPDGGYKYPQSHASSASGHSSNNLIFPPSMYPPQPPTAGAVQSSKFEGREMIREVKRVGVVEEAREGTSNYHGSLHHSAVGLV | soluble
MVSVNENALPLVERMIERAELLNVEVQELENGTTVIDCGVEAAGGFEAGLLFSEVCMGGLATVELTEFEHDGLCLPAVQVTTDHPAVSTLAAQKAGWQVQVGDYFAMGSGPARALALKPKETYEEIDYEDDADVAILCLESSELPDEDVAEHVADECGVDPENLYLLVAPTASIVGSVQVSARVVETGLYKLLEVLEYDVTRVKYATGTAPIAPVADDDGEAMGRTNDCILYGGTVYLYVEGDDELPEVVEELPSEASEDYGKPFMKIFEEADYDFYKIDPGVFAPARVVVNDLSTGKTYTAGEINVDVLKESFSL | soluble
MGSDKIHHHHHHVCSELAKDVPTNMSIKMPSLTPSSLSSLIPSSVPSEVQNVQGKDCMKEAIGADKIARQFSQAAKHYQEHDKVQRLSAQRLRTKMTPIGRLLDIGCGPGTDFSAAPGLNEVLGLDIAPGMLSQMLESFPSYKALCGDAQALPLSDASIDTLYSNLALQWCSDIKTAIGELARVLKPGSQCHLAIVVDGSLSELDALGLRVNAFEQAQTLLDGFSDSHWQIEHHSVEPLRVHFDDLKTLLYSIKGVGASAAMGSDVSQGSDVTQDSDASHGPDDTQGSVSKPPPRLRGRQDWLALCERAEKMRQPEGLPLTYQILFIHASRRG | not soluble
